# From article PMC4414724
# B1: horse liver ADH1E (Equus caballus) (protein)
# chain: STAGKVIKCKAAVLWEEKKPFSIEEVEVAPPKAHEVRIKMVATGICRSDDHVVSGTLVTPLPVIAGHEAAGIVESIGEGVTTVRPGDKVIPLFTPQCGKCRVCKHPEGNFCLKNDLSMPRGTMQDGTSRFTCRGKPIHHFLGTSTFSQYTVVDEISVAKIDAASPLEKVCLIGCGFSTGYGSAVKVAKVTQGSTCAVFGLGGVGLSVIMGCKAAGAARIIGVDINKDKFAKAKEVGATECVNPQDYKKPIQEVLTEMSNGGVDFSFEVIGRLDTMVTALSCCQEAYGVSVIVGVPPDSQNLSMNPMLLLSGRTWKGAIFGGFKSKDSVPKLVADFMAKKFALDPLITHVLPFEKINEGFDLLRSGESIRTILTF
# Substrate: OCCCCCO
# Assay: Reactions of horse liver ADH1E with 1,5-pentanediol and 5-hydroxypentanal
# Type: biochemical
# Details: pH 7.0; 25.0 °C
protein,measurement,value
B1,Km,21 mM
